Measured values published in paper doi:10.1101/2021.03.03.433707.

Target: MukB, full length, wild type (E. coli) (UniProt P22523)
Test: fluorescence correlation spectroscopy

MukB, full length, wild type (E. coli), sequence (P22523 whole entry): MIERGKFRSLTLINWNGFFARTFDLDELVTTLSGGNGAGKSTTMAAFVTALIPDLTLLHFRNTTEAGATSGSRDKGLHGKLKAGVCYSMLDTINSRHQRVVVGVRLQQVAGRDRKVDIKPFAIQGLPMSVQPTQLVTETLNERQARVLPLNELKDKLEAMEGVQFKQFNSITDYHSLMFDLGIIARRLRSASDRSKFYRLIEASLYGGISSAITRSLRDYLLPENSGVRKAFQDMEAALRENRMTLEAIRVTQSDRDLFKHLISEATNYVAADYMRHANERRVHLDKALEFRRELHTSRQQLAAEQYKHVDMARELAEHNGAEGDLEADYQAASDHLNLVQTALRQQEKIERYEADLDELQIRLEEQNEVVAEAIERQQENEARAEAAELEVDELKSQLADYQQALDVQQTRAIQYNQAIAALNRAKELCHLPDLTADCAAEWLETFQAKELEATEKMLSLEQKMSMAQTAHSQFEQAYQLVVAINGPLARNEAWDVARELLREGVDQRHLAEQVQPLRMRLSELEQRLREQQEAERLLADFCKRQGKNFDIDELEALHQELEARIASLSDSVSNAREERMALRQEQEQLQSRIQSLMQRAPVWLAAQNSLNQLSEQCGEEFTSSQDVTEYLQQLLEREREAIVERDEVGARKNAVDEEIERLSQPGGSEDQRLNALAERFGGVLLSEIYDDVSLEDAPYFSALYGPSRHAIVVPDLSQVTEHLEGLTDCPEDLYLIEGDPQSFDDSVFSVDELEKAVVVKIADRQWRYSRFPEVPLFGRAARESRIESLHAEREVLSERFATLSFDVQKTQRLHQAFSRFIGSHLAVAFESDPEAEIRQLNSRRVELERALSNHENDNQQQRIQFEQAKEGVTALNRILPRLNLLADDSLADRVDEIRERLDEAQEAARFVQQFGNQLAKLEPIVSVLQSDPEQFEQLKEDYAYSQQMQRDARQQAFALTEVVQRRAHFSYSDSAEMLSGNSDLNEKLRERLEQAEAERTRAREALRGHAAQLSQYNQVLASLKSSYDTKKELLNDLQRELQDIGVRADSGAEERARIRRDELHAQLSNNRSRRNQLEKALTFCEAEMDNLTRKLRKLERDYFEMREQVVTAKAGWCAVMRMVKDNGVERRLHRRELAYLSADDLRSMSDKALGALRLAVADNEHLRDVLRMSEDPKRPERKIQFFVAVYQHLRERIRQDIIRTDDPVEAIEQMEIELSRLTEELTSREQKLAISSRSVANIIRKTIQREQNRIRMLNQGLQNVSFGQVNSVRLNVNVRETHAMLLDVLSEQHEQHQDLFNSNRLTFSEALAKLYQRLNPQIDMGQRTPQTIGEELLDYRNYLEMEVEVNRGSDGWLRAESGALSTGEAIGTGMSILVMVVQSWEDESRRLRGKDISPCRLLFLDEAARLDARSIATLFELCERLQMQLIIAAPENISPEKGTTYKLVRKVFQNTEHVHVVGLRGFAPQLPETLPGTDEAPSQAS
MBP-ParC^CTD (ParC C-terminal domain with N-terminal MBP fusion) (domain or fragment), sequence (P0AFI2 whole entry, the tested form may be a part): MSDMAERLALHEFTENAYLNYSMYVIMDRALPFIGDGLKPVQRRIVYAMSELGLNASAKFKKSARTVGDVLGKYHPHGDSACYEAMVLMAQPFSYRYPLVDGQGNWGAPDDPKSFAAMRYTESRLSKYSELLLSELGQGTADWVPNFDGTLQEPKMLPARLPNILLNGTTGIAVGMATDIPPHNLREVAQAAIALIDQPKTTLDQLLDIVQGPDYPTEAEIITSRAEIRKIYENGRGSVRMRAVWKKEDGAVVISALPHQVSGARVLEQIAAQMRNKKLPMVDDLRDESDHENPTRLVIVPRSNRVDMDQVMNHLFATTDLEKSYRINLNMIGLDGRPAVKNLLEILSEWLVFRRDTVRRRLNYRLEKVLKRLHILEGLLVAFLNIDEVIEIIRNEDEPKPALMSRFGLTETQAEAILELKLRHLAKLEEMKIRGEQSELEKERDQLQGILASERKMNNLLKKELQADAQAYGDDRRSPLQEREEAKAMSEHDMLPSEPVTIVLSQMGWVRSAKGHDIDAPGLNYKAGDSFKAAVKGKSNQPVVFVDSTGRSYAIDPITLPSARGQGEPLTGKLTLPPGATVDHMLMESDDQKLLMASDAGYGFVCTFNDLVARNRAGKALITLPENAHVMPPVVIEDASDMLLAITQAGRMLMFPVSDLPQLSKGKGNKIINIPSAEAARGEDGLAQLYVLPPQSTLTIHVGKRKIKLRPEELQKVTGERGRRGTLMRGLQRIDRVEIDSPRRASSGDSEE

For “MBP-ParC^CTD (ParC C-terminal domain with N-terminal MBP fusion) (domain or fragment)”, the fold decrease in MatP-Cy3B binding to MukB at a 10-fold excess of competitor was 3 fold.
